# Experimental data as given in patent publication US20220356245A1.
# How the values were obtained:
# [1] = target: human CD47 (hCD47) expressed on cells (human) (UniProt Q08722); experiment: flow cytometry, Raji cells
# [2] = target: human CD47 (hCD47) expressed on cells (human) (UniProt Q08722); experiment: flow cytometry, Raji cells, competition with His-hSIRPα
# [3] = target: hu-sCD47-6His; extracellular domain of human CD47 antigen with 6His-tag (human); experiment: ELISA, coated glycosylated hCD47-His
# [4] = target: N-deglycosylated soluble hCD47-His (PNGase treated) (human); experiment: ELISA, coated N-deglycosylated hCD47-His
# [5] = target: hu-sCD47-6His; extracellular domain of human CD47 antigen with 6His-tag (human); experiment: ELISA, one-site binding saturation fit, glycosylated hCD47
# [6] = target: N-deglycosylated soluble hCD47-His (PNGase treated) (human); experiment: ELISA, one-site binding saturation fit, deglycosylated hCD47
# [7] = target: hu-sCD47-6His; extracellular domain of human CD47 antigen with 6His-tag (human); experiment: SPR Biacore
# Sequence of humanized 5F9 (hu5F9; vh2-vl2) (antibody) (VH): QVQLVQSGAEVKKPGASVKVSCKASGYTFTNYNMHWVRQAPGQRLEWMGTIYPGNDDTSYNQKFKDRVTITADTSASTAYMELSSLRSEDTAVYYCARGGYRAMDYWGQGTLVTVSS
# Sequence of humanized 5F9 (hu5F9; vh2-vl2) (antibody) (VL): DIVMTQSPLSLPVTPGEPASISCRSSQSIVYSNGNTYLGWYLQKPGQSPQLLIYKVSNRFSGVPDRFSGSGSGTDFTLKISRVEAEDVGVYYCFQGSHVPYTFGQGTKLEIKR
# Sequence of B6H12 (mouse IgG1, Abcam) (antibody) (VH): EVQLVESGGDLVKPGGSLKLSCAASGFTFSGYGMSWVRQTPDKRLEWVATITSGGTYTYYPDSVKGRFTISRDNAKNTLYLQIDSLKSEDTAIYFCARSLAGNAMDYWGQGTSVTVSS
# Sequence of B6H12 (mouse IgG1, Abcam) (antibody) (VL): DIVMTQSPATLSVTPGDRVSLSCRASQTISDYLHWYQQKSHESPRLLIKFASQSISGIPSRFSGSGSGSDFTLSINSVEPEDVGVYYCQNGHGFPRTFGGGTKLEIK
substance,measurement,setting,value
"B6H12 (mouse IgG1, Abcam) (antibody)",EC50,[1],2.93 µg/mL
chimeric 5F9 (c5F9) (antibody),IC50,[2],0.209 µg/mL
humanized 5F9 (hu5F9; vh2-vl2) (antibody),EC50,[3],0.0547 nM
same,EC95,[3],1.96 nM
same,EC50,[4],0.254 nM
same,EC95,[4],54 nM
same,Bmax,[5],2.66 OD value
same,equilibrium binding constant,[5],49 pM
same,Bmax2,[6],1.4 OD value
same,equilibrium binding constant,[6],129 pM
same,Kd,[7],0.73 nM
